The experiment deals with CTNNBL1^Q238A (human) (UniProt Q8WYA6). The experiment in a line: SEC; Superdex 200 10/300, 500 μl of 2 mg/ml protein, 0.5 ml/min, 40 mM Tris-HCl pH 8.0, 150 mM NaCl; molecular weight from calibration standards.

Stoichiometry N data for one substance are collected here from article PMC4585563.

For orientation: stoichiometry N means a count of units in the complex or per binding partner. Regarding “CTNNBL1^Q238A (from UniProt Q8WYA6 77-563) (domain or fragment)”, the stoichiometry N was determined as 2.
